B1: human recombinant neurturin (unmodified protein), Q99748 96-197 (ligand)
chain: ARLGARPCGLRELEVRVSELGLGYASDETVLFRYCAGACEAAARVYDLGLRRLRQRRRLRRERVRAQPCCRPTAYEDEVSFLDAHSRYHTVHELSARECACV
B2: mono-mPEG-CHO-neurturin, Q99748 96-197; Q99748 96-197 (ligand)
chain 1: B1 chain
chain 2: B1 chain
modifications: here or on the partner: linear 5 kDa polyethylene glycol butyraldehyde-derived PEG on the N-terminal amino acid
B3: mono-mPEG-NHS-neurturin, Q99748 96-197; Q99748 96-197 (ligand)
chain 1: B1 chain
chain 2: B1 chain
modifications: here or on the partner: about 5 kDa linear PEG (mPEG-succinimidyl succinat reagent, NHS-method) on the N-terminal amino acid
B4: mono-CES0310-neurturin, Q99748 96-197; Q99748 96-197 (ligand)
chain 1: B1 chain
chain 2: B1 chain
modifications: here or on the partner: six-arm branched PEG of about 5 kDa on the N-terminal amino acid

Target: receptors for neurturin on the cell surface of human neuroblastoma cell line TGW (JCRB0618)
Experiment: cell-based or functional assay

Row | Binder | biological activity in vitro (tyrosine hydroxylase reporter gene, luciferase, TGW cells), EC50 | reporter gene activity (luciferase, SRE reporter in TGW cells), EC50
1 | B1 | 2.2 ng/ml | 
2 | B2 |  | 7.4 ng/mL
3 | B3 |  | 9.7 ng/mL
4 | B4 |  | 12 ng/mL

— patent US20160060317A1
